Test results reported in patent US11324804B2, “Combined CD6 and imipenem therapy for treatment of infectious diseases and related inflammatory processes” (Sepsia Therapeutics, S.L., priority 2016, dated 2022).

What was measured:
[1] = tested on: pro- (TNF-α, IL-1β, IL-6) and anti- (IL-10) inflammatory cytokines; test: ELISA of cytokine plasma levels post CLP-induced septic shock; assay type: in vivo, C57BL/6J mice
Method: (§1) Plasma levels of rshCD6 were determined by sandwich ELISA, using unlabelled (161.8) and biotin-labelled (SPV-L14.2) anti-CD6 monoclonal antibodies (2 μg/mL, each) as capture and detection antisera, respectively. Serial dilutions of purified rshCD6 were used as a standard. Diluted or undiluted plasma samples were used for monitoring IL-6 (1:70; Mouse IL-6 ELISA Set, BD Bioscience-555240), TNF-α (1:10; Mouse TNF-α ELISA Set, BD Bioscience-558534), IL-10 (neat; Mouse IL-10 ELISA Set, BD Bioscience-555252), and IL-1β (neat; Mouse IL-1β ELISA Set, BD Bioscience-559603) levels by commercially available ELISA kits, following manufacturer's instructions. Plates were developed with horseradish peroxidase-labeled streptavidin (Roche Diagnostics) and TMB Substrate Reagent Set (BD OptEIA, BD Biosciences), and further measurement of optical density at 450 nm (OD450 nm).

[2] = design: species or system C57BL/6J mice; conditions: mouse, in vivo, 1.25 mg/kg
Method: as §1

LPS-induced septic shock = conditions: intraperitoneal (i.p.) administration, mice; cited from earlier work
[3] = tested on: CLP-induced polymicrobial septic shock; test: Mouse survival after cecal ligation and puncture (CLP)-induced septic shock
Method: CLP-induced septic shock was induced in 8-10 week old C57BL/6J male mice (20-25 g; Charles River) following previously reported methods (Rittirsch D, et al., 2009. Immunodesign of experimental sepsis by cecal ligation and puncture. Nat Protoc 4:31-36). The severity of the CLP model was adjusted to achieve a high-grade mortality (meaning ≥90% mortality in the first 48-72 h) by ligating 75% of cecum. Mice were anesthetized with 100 mg/kg ketamine (Imalgéne 1000, Merial) and 10 mg/kg xylazine (Rompun, Bayer) subsequently resuscitated with 1 mL saline serum intraperitoneally (i.p.). To mitigate pain effects, 0.05 mg/kg/12 h Buprenorphin was administered subcutaneously. […] Daily weight loss monitoring (usually was of 10-15% in the first 48 h post-CLP) allowed exclusion of animals not undergoing clinical sepsis.
The survival data were represented in Kaplan-Meier graphs and analysed by the Log-Rank χ^2 test. Statistical significant differences (P<0.01) were determined by 2-tailed non parametric Mann-Whitney test.

bacterial load = test: Bacterial load (cfu) post CLP-induced septic shock; assay type: in vivo, C57BL/6J mice
Method: Blood samples were taken from live mice by facial vein puncture at 4 h post-CLP. Peritoneal, spleen and kidney samples were obtained from euthanized mice at 20 h post-CLP. For peritoneal lavage, euthanized mice were i.p. infused with 3 mL cold PBS. After gently abdominal massaging for 5 min, the peritoneal fluid was collected taking care to avoid clogging by the fat tissue and not to damage internal organs. Blood-contaminated peritoneal samples were discarded. The collected peritoneal fluid was centrifuged (3500 rpm, 10 min at 4° C.) and the pellet resuspended in 200 μL PBS. Spleen (100 mg) and kidney (250 mg) homogenization was performed by pressing the organs with a syringe plunger through a 40 μm cell strainer in 3 mL cold PBS. The resulting homogenates were centrifuged (3500 rpm, 10 min at 4° C.) and pellets resuspended in 750 μL PBS. Serial dilutions of blood, peritoneal lavage, and spleen and kidney homogenates were prepared in sterile PBS for plating on agar with 5% sheep blood (Becton Dikinson, UK) at 37° C. overnight. Viable bacterial counts were expressed as colony-forming units (cfu) per mL or mg.

[4] = tested on: septic shock induced by G+ and G− bacterial endotoxins (LTA+PGN, and LPS) and whole alive bacteria (Staphylococcus aureus, Acinetobacter baumannii); conditions: prophylactic infusion; mouse models of septic shock; cited from earlier work
[5] = prophylactic (−1 h) 1.25 mg/kg i.p., +4 h, +20 h post-CLP, FIG. 1C
[6] = therapeutic (+1 h) 1.25 mg/kg i.p., 4 and 20 h post-CLP, FIG. 2C
[7] = single dose 1.25 mg/kg i.p. 1 h before (−1 h) CLP induction, FIG. 1A
[8] = prophylactic (−1 h) 1.25 mg/kg i.p., FIG. 1D
[9] = therapeutic (+1 h) 1.25 mg/kg i.p., FIG. 2D

B1: rshCD6: recombinantly obtained soluble human CD6 ectodomain (SEQ ID NO: 1) (protein, listed as Homo sapiens)
chain: DQLNTSSAESELWEPGERLPVRLTNGSSSCSGTVEVRLEASWEPACGALWDSRAAEAVCRALGCGGAEAASQLAPPTPELPPPPAAGNTSVAANATLAGAPALLCSGAEWRLCEVVEHACRSDGRRARVTCAENRALRLVDGGGACAGRVEMLEHGEWGSVCDDTWDLEDAHVVCRQLGCGWAVQALPGLHFTPGRGPIHRDQVNCSGAEAYLWDCPGLPGQHYCGHKEDAGVVCSEHQSWRLTGGADRCEGQVEVHFRGVWNTVCDSEWYPSEAKVLCQSLGCGTAVERPKGLPHSLSGRMYYSCNGEELTLSNCSWRFNNSNLCSQSLAARVLCSASRSLHNLSTPEVPASVQTVTIESSVTVKIENKESR
plasma level of IL-1β compared to saline-treated group [1, 5]: significantly lowered | plasma level of IL-6 compared to saline-treated group [1, 5]: significantly lowered | plasma level of IL-10 compared to saline-treated group [1, 5]: higher levels | plasma level of TNF-α compared to saline-treated group [1, 5]: significantly lowered | plasma level of IL-1β compared with saline-treated group [1, 6]: lower pro-inflammatory cytokine levels, which reached statistical significance | plasma level of IL-6 compared with saline-treated group [1, 6]: lower pro-inflammatory cytokine levels, which reached statistical significance | plasma level of IL-10 compared with saline-treated group [1, 6]: no differences observed | plasma level of TNF-α compared with saline-treated group [1, 6]: lower pro-inflammatory cytokine levels | maximal plasma levels achieved via i.v. versus via i.p. [2]: higher | time of decrease to nearly basal plasma levels ([2]; ip): ≤ 6 h | time of maximal rshCD6 plasma levels ([2]; ip): 3 h | time of decline to nearly basal plasma levels ([2]; iv): ≤ 6 h | time of maximal and sustained plasma levels ([2]; iv): 1 to 3 h | lethal effects caused by LPS-induced septic shock (LPS-induced septic shock): counteracts the lethal effects | prophylactic dose giving statistical significant results on survival ([3]; i.p. 1 h before CLP, FIG. 1B): above 0.625 mg/kg | prophylactic dose reaching maximal efficacy on survival ([3]; i.p. 1 h before CLP, FIG. 1B): 2.5 mg/kg | optimal rshCD6 dose in mice ([3]; mice): 1.25 to 2.50 mg/kg | survival ([3]; repeated dosage 1.25 mg/kg i.p. at +1 h, +3 h and +6 h post-CLP, FIG. 2B): 26.32% | survival [3, 7]: 47.06% | survival ([3]; single dose 1.25 mg/kg i.v. at +1 h post-CLP, FIG. 3B): 30% | survival ([3]; single dose 1.25 mg/kg i.v. at +3 h post-CLP, FIG. 3B): 20% | survival ([3]; single dose 1.25 mg/kg i.v. at +6 h post-CLP, FIG. 3B): 40% | survival ([3]; single infusion 1.25 mg/kg i.p. at +1 h post-CLP, FIG. 2A): 29.03% | survival ([3]; single infusion 1.25 mg/kg i.p. at +3 h post-CLP, FIG. 2A): 14.28% | survival ([3]; single infusion 1.25 mg/kg i.p. at +6 h post-CLP, FIG. 2A): 17.65% | bacterial load from blood compared to saline-treated group (bacterial load; [8]): lowered | bacterial load from kidney compared to saline-treated group (bacterial load; [8]): lowered | bacterial load from spleen compared to saline-treated group (bacterial load; [8]): lowered | bacterial load (cfu) from blood with regard to saline-treated group (bacterial load; [9]): lower cfu | bacterial load (cfu) from kidney with regard to saline-treated group (bacterial load; [9]): lower cfu | bacterial load (cfu) from spleen with regard to saline-treated group (bacterial load; [9]): lower cfu | mortality [4]: significantly reduces | serum levels of pro-inflammatory cytokines (IL-1β, IL-6 and TNF-α) [4]: significantly reduces

B2: rshCD5: purified recombinant soluble human CD5 protein, used as comparison protein (protein, UniProt P06127 25-372, looked up)
extracellular domain: RLSWYDPDFQARLTRSNSKCQGQLEVYLKDGWHMVCSQSWGRSSKQWEDPSQASKVCQRLNCGVPLSLGPFLVTYTPQSSIICYGQLGSFSNCSHSRNDMCHSLGLTCLEPQKTTPPTTRPPPTTTPEPTAPPRLQLVAQSGGQHCAGVVEFYSGSLGGTISYEAQDKTQDLENFLCNNLQCGSFLKHLPETEAGRAQDPGEPREHQPLPIQWKIQNSSCTSLEHCFRKIKPQKSGRVLALLCSGFQPKVQSRLVGGSSICEGTVEVRQGAQWAALCDSSSARSSLRWEEVCREQQCGSVNSYRVLDAGDPTSRGLFCPHQKLSQCHELWERNSYCKKVFVTCQDPNP
modifications: extracellular domain
survival [3, 7]: 11.11%
